For 35 molecules, Kd results are on record in US20260308269 (published 2026).

The term Kd denotes the constant that tells how readily two partners part at equilibrium. A higher Kd goes with a looser complex.

Residue numbers refer to the chain shown, from its start.

B1: LLB2-10-8-d6 (protein)
chain: APELLGGPSVFLFPPKPKDTLMISRTPEVTCVVVDVSHEDPEVKFNWYVDGVEVHNAKTKPREEQYNSTYRVVSVLTVLHQDWLNGKEYKCKVSNKALPAPIEKTISKAKGQPREPQVYTLPPSRDELTKNQVSLTCLVKGFYPSDIAVLWNSRFVLENNYKTTPPVLDSDGSFFLYSKLTVDKSRWQQGNVFACNVYHEALHNHYTFKNLALSPGK
B2: LLB2.10.8.10.3 (protein)
chain: B1 chain with N191E, V192I, A212R
B3: LLB2-37 (protein)
chain: B1 chain with R154Q, V156H, V192I, A212L
B4: LLB2-10-8 (protein)
chain: B1 chain with N191E, V192I
B5: LLB2-10-8-d12 (protein)
chain: B1 chain with R154H, F155Y, V156E
B6: LLB2-10-8.d28 (protein)
chain: B1 chain with N152S, F155Y
B7: LLB2.10.8.14.3 (protein)
chain: B1 chain with N191E, V192I, Y206R, A212R
B8: LLB1-3-16 (protein)
chain: APELLGGPSVFLFPPKPKDTLMISRTPEVTCVVVDVSHEDPEVKFNWYVDGVEVHNAKTKPREEQYNSTYRVVSVLTVLHQDWLNGKEYKCKVSNKALPAPIEKTISKAKGQPREPQVYTLPPSRDELTKNQVSLTCLVKGFYPSDIAVEWRTYKPYETNYKTTPPVLDSDGSFFLYSKLTVDKSRWQQGDIFVCDVLHEALHNHFTIKKLSLSPGK
B9: LLB1-3-16-2 (protein)
chain: B8 chain with L198M
B10: 42.2.3-1H (protein)
chain: APELLGGPSVFLFPPKPKDTLMISRTPEVTCVVVDVSHEDPEVKFNWYVDGVEVHNAKTKPREEQYNSTYRVVSVLTVLHQDWLNGKEYKCKVSNKALPAPIEKTISKAKGQPREPQVYTLPPSRDELTKNQVSLTCLVKGFYPSDIAVEWFYGNAKETNYKTTPPVLDSDGSFFLYSKLTVDKSRWQQGNLFACEVMHEALHNHYTYKLLSLSPGK
B11: 42.8.196 (protein)
chain: B10 chain with G154E, N155A, A156Q, E158L, T159N
B12: 42.8.80 (protein)
chain: B10 chain with Y153S, G154E, N155G, A156S
B13: 35.d1.12 (protein)
chain: ASTKGPSVFPLAPSSKSTSGGTAALGCLVKDYFPEPVTVSWNSGALTSGVHTFPAVLQSSGLYSLSSVVTVPSSSLGTQTYICNVNHKPSNTKVDKKVEPKSCDKTHTCPPCPAPELLGGPSVFLFPPKPKDTLMISRTPEVTCVVVDVSHEDPEVKFNWYVDGVEVHNAKTKPREEQYNSTYRVVSVLTVLHQDWLNGKEYKCKVSNKALPAPIEKTISKAKGQPREPQVYTLPPSRDELTKNQVSLTCLVKGFYPSDIAVEWESFGTEWSNYKTTPPVLDSDGSFFLYSKLTVSKSEWQQGFVFSCSVMHEALHNHYTQKSLSLSPELQLEESCAEAQDGELDGLWTT
B14: 35.d1.22 (protein)
chain: B13 chain with F267Y, T269N, S298E
B15: 35.d1.17 (protein)
chain: B13 chain with S272T
B16: 35.d1.1 (protein)
chain: B13 chain with F267Y, T269N, N273S, S296T
B17: 35.d1.20 (protein)
chain: B13 chain with F267Y, S272V
B18: 35.d1.19 (protein)
chain: B13 chain with S272V, F304Y
B19: 35.d1.21 (protein)
chain: B13 chain with F267Y, S272V, F304Y
B20: 35.d1.24 (protein)
chain: B13 chain with F267Y, S298E, F304Y
B21: 35.d1.7 (protein)
chain: B13 chain with F267Y, N273S, F304Y
B22: 35.d1.16 (protein)
chain: B13 chain with T269N
B23: 35.d1.18 (protein)
chain: B13 chain with F304Y
B24: 35.d1.11 (protein)
chain: B13 chain with F267Y, S296T, F304Y
B25: CH3C.1.35 (protein)
chain: B13 chain with F267Y, N273S, S296T
B26: 35.d1.8 (protein)
chain: B13 chain with F267Y, T269N, S296T
B27: 35.d1.14 (protein)
chain: B13 chain with F267Y, S272T
B28: 35.d1.13 (protein)
chain: B13 chain with F267Y, T269N
B29: 35.d1.6 (protein)
chain: B13 chain with F267Y, S272T, N273S
B30: 35.d1.3 (protein)
chain: B13 chain with F267Y, N273S, S296T, F304Y
B31: 35.d1.15 (protein)
chain: B13 chain with F267Y, F304Y
B32: 35.d1.2 (protein)
chain: B13 chain with F267Y, S272T, N273S, S296T
B33: 35.d1.23 (protein)
chain: B13 chain with F267Y, S272T, S298E
B34: 35.d1.4 (protein)
chain: B13 chain with N273S
B35: 35.d1.5 (protein)
chain: B13 chain with F267Y, T269N, N273S

In the first test the target is T1, human CD98hc (human).
T1 chain: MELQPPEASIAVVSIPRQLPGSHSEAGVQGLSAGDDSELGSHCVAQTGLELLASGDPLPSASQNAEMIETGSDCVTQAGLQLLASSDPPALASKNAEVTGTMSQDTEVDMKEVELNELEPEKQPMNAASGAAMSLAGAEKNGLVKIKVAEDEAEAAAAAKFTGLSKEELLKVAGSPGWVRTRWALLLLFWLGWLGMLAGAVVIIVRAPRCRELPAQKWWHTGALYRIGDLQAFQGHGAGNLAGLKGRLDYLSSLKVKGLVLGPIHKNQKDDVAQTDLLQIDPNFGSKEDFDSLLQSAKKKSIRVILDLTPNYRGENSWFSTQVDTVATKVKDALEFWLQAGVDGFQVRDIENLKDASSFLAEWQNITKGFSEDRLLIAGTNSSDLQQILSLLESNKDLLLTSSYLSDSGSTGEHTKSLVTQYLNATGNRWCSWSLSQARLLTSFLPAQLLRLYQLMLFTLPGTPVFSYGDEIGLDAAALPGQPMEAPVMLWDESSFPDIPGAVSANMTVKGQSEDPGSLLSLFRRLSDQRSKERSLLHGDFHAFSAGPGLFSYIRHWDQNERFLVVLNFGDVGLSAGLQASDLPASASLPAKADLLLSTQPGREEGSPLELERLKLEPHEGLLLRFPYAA
Description: SPR.
The molecule B1 registered an equilibrium dissociation constant (Kd) of 550 nM.

Consider B2, for which binding was characterised by a dissociation constant (Kd) of 43 nM.

B3 had an equilibrium dissociation constant (Kd) of 610 nM.

In turn, B4 returned a Kd of 170 nM.

Take B5: the Kd is 2100 nM.

As to B6, the Kd was found to be 4200 nM.

Molecule B7 gave a dissociation constant Kd of 20 nM.

As for B8, binding was put at a Kd of 32 nM.

In turn, B9 displayed a Kd of 175 nM.

In the next test the target is T2, human TfR apical domain (human).
T2 chain: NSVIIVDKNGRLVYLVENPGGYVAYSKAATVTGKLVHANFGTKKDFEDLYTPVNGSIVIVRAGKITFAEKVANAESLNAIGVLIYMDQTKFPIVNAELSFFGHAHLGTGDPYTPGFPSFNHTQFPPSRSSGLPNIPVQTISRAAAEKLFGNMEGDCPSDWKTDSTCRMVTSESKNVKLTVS
Description: SPR.
B10: the affinity, expressed as Kd, was 220 nM.

The molecule B11 yielded a Kd of 924 nM.

On to B12, for which binding was characterised by a dissociation constant (Kd) of 2380 nM.

The target of the next test is T2, human TfR apical domain. The test can be described thus: SPR. This is another data set of the same source. In general terms: Surface plasmon resonance follows binding to a sensor surface in real time, without labels.
In turn, B13 had a Kd of 1600 nM.

On to B14, for which the Kd was determined as 5200 nM.

Molecule B15 returned a Kd of 18800 nM.

Consider B16, for which binding was put at a Kd of 6200 nM.

As for B17, the Kd is 3600 nM.

B18 registered a Kd of 16000 nM.

Molecule B19 registered an equilibrium dissociation constant (Kd) of 14100 nM.

B20 registered a Kd of 1100 nM.

B21 yielded a Kd of 3000 nM.

B22 returned a dissociation constant (Kd) of 35600 nM.

Regarding B23, the Kd was found to be 4400 nM.

The molecule B24 showed a Kd of 2500 nM.

In turn, B25 returned a Kd of 610 nM.

Molecule B26 came in with a Kd of 13200 nM.

In the case of B27, the affinity, expressed as Kd, was 11700 nM.

With B28, binding was put at a Kd of 18500 nM.

B29 came in with a Kd of 11200 nM.

For the molecule B30, the equilibrium dissociation constant (Kd) worked out at 1300 nM.

Consider B31, for which the Kd is 3600 nM.

Regarding B32, binding was characterised by a dissociation constant (Kd) of 4300 nM.

B33: the dissociation constant (Kd) stood at 3500 nM.

Molecule B34 gave a Kd of 1400 nM.

The molecule B35 returned a dissociation constant Kd of 13600 nM.
